Measured values reported in patent US20060051755A1.

Target: UbAMC (Homo sapiens (Human)) (UniProt P0CG48)

Km, fluorogenic ubiquitin cleavage assay: 0.5 µM
Substance: GST-Bap-1 (enzyme)
